Test results taken from publication PMC13190736.

B1: Nb C107 (VHH)
VHH: QVQLVESGGGLVQPGGSLRLSCAPSGSTSGIYASGWYRQVPGKPQEWLADISRGGSTKYADSVKGRFTISRDNAKNTVYLQMNSLKPEDTATYYCRVIDTLGAEYRGQGTQVTVSS
B2: Nb C112 (VHH)
VHH: QVQLVESGGGLVQAGGSLRLSCTASERMYGIEMGWFRQAPGKERELVAAITWSGVVSHLQESVKGRFTISRDNPKKTVYLQMNSLKPEDTATYYCAGHRLQWASGYTRHDYGSWGQGTQVTVSS

How the values were obtained:
[1] = molecular target: staphylococcal enterotoxin C (SEC-2), wild type (Staphylococcus aureus) (UniProt P34071); assay: ELISA
[2] = molecular target: staphylococcal enterotoxin C (SEC-2), wild type (Staphylococcus aureus) (UniProt P34071); assay: SPR

Binder	EC50 [1]	Kd [2]
B1	2.5 nM	–
B2	–	0.179 nM
